# Experimental data taken from patent publication US9757451B2, “Use of RANK/RANKL antagonists for treating muscular dystrophy” (UNIVERSITÉ LAVAL, priority 2011, dated 2017).
# Entries after “also recorded” stand apart in the source; their conditions may differ.
# B1: RANKL: receptor-activator of nuclear factor κβ ligand, added at 100 ng/ml to C2C12 myotubes (protein, UniProt O35235 139-316, looked up)
# Tumor necrosis factor ligand …: FSGAPAMMEGSWLDVAQRGKPEAQPFAHLTINAASIPSGSHKVTLSSWYHDRGWAKISNMTLSNGKLRVNQDGFYYLYANICFRHHETSGSVPTDYLQLMVYVVKTSIKIPSSHNLMKGGSTKNWSGNSEFHFYSINVGGFFKLRAGEEISIQVSNPSLLDPDQDATYFGAFKVQDID
# B2: OPG: Osteoprotegerin, binds RANKL and inhibits the RANK/RANKL interaction; bought from R&D systems (Catalog number:459-MO) (protein, UniProt O08712 22-401, looked up)
# Tumor necrosis factor …: ETLPPKYLHYDPETGHQLLCDKCAPGTYLKQHCTVRRKTLCVPCPDHSYTDSWHTSDECVYCSPVCKELQSVKQECNRTHNRVCECEEGRYLEIEFCLKHRSCPPGSGVVQAGTPERNTVCKKCPDGFFSGETSSKAPCIKHTNCSTFGLLLIQKGNATHDNVCSGNREATQKCGIDVTLCEEAFFRFAVPTKIIPNWLSVLVDSLPGTKVNAESVERIKRRHSSQEQTFQLLKLWKHQNRDQEMVKKIIQDIDLCESSVQRHLGHSNLTTEQLLALMESLPGKKISPEEIERTRKTCKSSEQLLKLLSLWRIKNGDQDTLKGLMYALKHLKTSHFPKTVTHSLRKTMRFLHSFTMYRLYQKLFLEMIGNQVQSVKISCL
# Experiments:
# C2C12 myotubes [1] = assay: Dexamethasone-induced myotube atrophy (myotube diameter) in vitro; type: cell-based, mouse
# Method: FIG. 9. […] Myotubes were incubated with DEX (1,000 nM) and/or OPG at 10 ng/mL or 100 ng/mL. OPG used and tested in vivo and in vitro was bought from R&D systems (Catalog number:459-MO).
# To further investigate how RANK/RANKL influences muscle function, the present inventor(s) have assessed the effect of DEX on C2C12 myoblasts grown in DMEM containing 10% FBS and 1% antibiotic-antimycotic in 96-well plates at a density of 3,000 myoblasts/well. The present inventor(s) used this mouse myoblast cell line because the present inventor(s) are very familiar with it and because it easily differentiates into myotubes and responds to RANKL stimulation. Confluent myoblasts on coverslips (approximately 300,000/well) were incubated in DMEM containing 2% horse serum for five days to allow them to differentiate into myotubes. The myotubes were then exposed to […]. This concentration was sufficient to induce a 15-20% decrease in myotube diameter relative to control myotubes after 48 h. Myotubes in other wells were treated or not with 1 mM DEX combined with 100 ng/ml of OPG. In the experiment proposed herein, myotube atrophy were determined by measuring the diameters of the myotubes at 100× magnification using a light microscope (Nikon). Three different sites in each well were blindly identified and observed throughout the experiment. The average were considered as a single value. Myotube diameters were quantified using the ImageJ digital imaging system (NIH). The diameters of 150 to 200 myotubes per well were measured after 24 and 48 h. Measurements were performed in triplicate for all the experimental conditions to enable statistical comparisons between groups.
# [2] = cited from earlier work
# C2C12 myotubes [3] = assay: Ca2+ concentration in myotubes measured with fluo-4; type: cell-based, mouse; conditions: RANKL 100 ng/ml, 10 min; myotubes 5 days in differentiation medium
# Method: FIG. 17: RANK/RANKL interaction influences Ca^2+ homeostasis and activates different cell signaling pathways. […] Data are presented as mean+/−sem.
# C2C12 myotubes fully differentiated were incubated with fluo-4 to measure Ca^2+ concentration. C2C12 Myotubes were then exposed to RANKL (100 ng/ml) for 10 min. […] (FIG. 17A). Serca activity in sham and denervated RANK^del/fl compared to sham and denervated RANK^fl/fl EDL muscles were then measured by spectrofluorimetric analysis. SERCA activity increased by more than 2-fold in EDL muscles from sham and denervated RANK^del/fl mice (FIG. 17B). […] Graph representing the difference in the expression of SERCA isoforms for each fiber type for SOL and EDL muscles compared to sham RANK^fl/fl mice. (FIG. 17E). […] Data are presented as mean+/−sem.
# mdx mice = assay: Contractile and physical properties of SOL and EDL muscles of mdx mice injected with OPG; type: in vivo; conditions: for half relaxation time (½ RT) / maximal absolute force (Po) / maximal twitch tension (Pt) / time to peak tension (TPT) / Muscle weight: mdx, mean +/- sem
# Text: (§1) Muscle contractility measurements were used to test the involvement of the RANK/RANKL pathway in muscle dysfunction. In vitro measurements of muscle contractility are the gold standard for assessing muscle function and were be performed as described previously^68,69. […] Twitch and tetanic contractions were elicited, and the following measurements recorded: maximum twitch tension (Pt), time to peak tension (TPT), one-half relaxation time (RT 1/2), and maximum tetanic tension (Po). To assess muscle fatigue, EDL and SOL muscles from RANK^fl/fl and RANK^del/fl mice were stimulated at 1 train/s at 50 Hz, and the time to the loss of 30% of their initial force recorded. […] Consistent with this observation that RANK^del/fl mice expressed a faster muscle phenotype than wild type, SOL and EDL muscles from these mice were less resistant to a fatigue protocol (FIGS. 5,6). The muscles were weighed without their tendons to quantify muscle mass and to allow the calculation of the maximum specific Po (N/cm^2).
# Male mdx mice (C57BL/10ScSnJ) were purchased from Jackson Laboratories. Mdx mice were then injected i.p. with OPG (0.3 mg/kg/day) for 10 days during the 3rd and 4th week of life. Body weight were measured every 2 days and drug volume were adjusted accordingly. This concentration of OPG is selected because it is known to inhibit RANKL and bone resorption.
# (§2) SOL and EDL muscles from male wild type and mdx mice were dissected and contractile properties analyzed at 4 weeks of age.
# C57BL/10J mice = assay: Contractile and physical properties of SOL and EDL muscles of C57BL/10J control mice injected with OPG; type: in vivo; conditions: OPG 0.3 mg/kg/day i.p. 10 days, mean +/- sem
# Text: as §1, §2
# [4] = EDL muscle ex vivo, OPG 0.3 mg/kg/day i.p. 10 days
# [5] = SOL muscle ex vivo, OPG 0.3 mg/kg/day i.p. 10 days
molecule,measurement,setting,value
"C[C@@H]1C[C@H]2[C@@H]3CCC4=CC(=O)C=C[C@]4(C)[C@@]3(F)[C@@H](O)C[C@]2(C)[C@@]1(O)C(=O)CO [DEX, dexamethasone, reference compound]",decrease in myotube diameter relative to control myotubes,"C2C12 myotubes [1]; 1 mM DEX, after 48 h",15-20%
Denosumab: full human antibody that shares the pharmalogical attributes of OPG; RANKL antagonist,half-life relative to OPG,[2],significant longer half-life
B1,effect on DEX-induced myotube atrophy,C2C12 myotubes [1]; RANKL with DEX,exacerbates
same,cytosolic Ca2+ (mean fluorescence intensity of fluo-4),C2C12 myotubes [3],increased the release of cytosolic Ca^2+; also recorded: increased mean fluorescence intensity of fluo-4
B2,half relaxation time (½ RT),mdx mice; [4],20.67 ± 2.18 ms
same,maximal absolute force (Po),mdx mice; [4],10.3 ± 1.3 g
same,maximal twitch tension (Pt),mdx mice; [4],2.01 ± 0.2 g
same,time to peak tension (TPT),mdx mice; [4],29.75 ± 7.47 ms
same,Muscle weight,"mdx mice; EDL muscle, OPG 0.3 mg/kg/day i.p. 10 days",4.96 ± 0.93 mg
same,half relaxation time (½ RT),mdx mice; [5],38 ± 3.3 ms
same,maximal absolute force (Po),mdx mice; [5],8.02 ± 2.99 g
same,maximal twitch tension (Pt),mdx mice; [5],1.2 ± 0.18 g
same,time to peak tension (TPT),mdx mice; [5],35.2 ± 2.43 ms
same,Muscle weight,"mdx mice; SOL muscle, OPG 0.3 mg/kg/day i.p. 10 days",4.90 ± 0.72 mg
same,increase of maximum force production (maximum specific tetanic force) of EDL muscles,"mdx mice; male mdx mice, OPG 0.3 mg/kg daily 10 days from day 18 after birth, vs PBS",more than 200%
same,specific muscle force of EDL muscles,"mdx mice; young mdx mice (28 days), OPG 0.3 mg/kg/day i.p. 10 days, compared to PBS",Specific muscle force preservation is also observed
same,half relaxation time (½ RT),C57BL/10J mice; EDL muscle ex vivo,20.3 ± 2.4 ms
same,maximal absolute force (Po),C57BL/10J mice; EDL muscle ex vivo,14.53 ± 3.44 g
same,maximal twitch tension (Pt),C57BL/10J mice; EDL muscle ex vivo,2.52 ± 0.26 g
same,time to peak tension (TPT),C57BL/10J mice; EDL muscle ex vivo,25.8 ± 2.6 ms
same,Muscle weight,C57BL/10J mice; EDL muscle,4.18 ± 0.25 mg
same,half relaxation time (½ RT),C57BL/10J mice; SOL muscle ex vivo,46.8 ± 5.7 ms
same,maximal absolute force (Po),C57BL/10J mice; SOL muscle ex vivo,10.79 ± 0.27 g
same,maximal twitch tension (Pt),C57BL/10J mice; SOL muscle ex vivo,1.8 ± 0.06 g
same,time to peak tension (TPT),C57BL/10J mice; SOL muscle ex vivo,50.75 ± 3.83 ms
same,Muscle weight,C57BL/10J mice; SOL muscle,3.73 ± 0.20 mg
same,effect on DEX-induced atrophic and phenotype change process in myotubes,"C2C12 myotubes [1]; 1 mM DEX, >100 ng/ml of OPG, preliminary results",reversed the atrophic and phenotype change process
same,effect on DEX-induced myotube atrophy,"C2C12 myotubes [1]; DEX 1,000 nM, OPG 100 ng/ml, 24 and 48 h (FIG. 9)",protects against DEX-induced myotube atrophy; also recorded: totally reversed the atrophic process; also recorded: prevents myotube atrophy
